Experiment: label from the status in PepcDB records

**Q.** For “MEFHLPSVPMRKILSYLDAFSLLQIAQVNKRWNTFASTDVLWRKFCLKRWFFYEVVTLELLGTESWKQFFVCRTRQERAKSRAKPEDFTYKEIPVEIGAPRNAYYISGCGLTRDGQGKSVICVVTSMNTISTWDLHKGAVTWVSPVQPSYIKILATLPEMHIAVTVDIESTIKLWDCHNREALATNNMLSSCQSLKAVFTKDGPVVLAGDTSGNLLIFRIPDLHLISRVHVFQYGINELYCSPQKKWVFLSKKHSQILPKVFFMSSLLRTSEFSAPASTILSFPLCQRAFWTPRREDRITLMSIKGSKKITTFVTFDIKLEKEEIGNKIRVKEYAIANFSLKKFEDTLEWMGVSDKNVIVCSTGSSLLIYSITGLHLQTFPYGPGEILRLSVDPLHVIVTFIDGSLELFAWEERSPLLRRCYRLYNKRHMLHRRFVNKTLCDDVSIVRVMTNVPSSSFLMVYTLNNGS”, which protein production is on record?
**A.** failed

**Q.** With “MEFNDLGITIKELRIKKNISQSELCHGICSQSQISKIEKGMIYPSSILLYQLSERLGIDPNNIFALTQNKRLKYVENVKYVIKDCLKQKQYKELYEIVKKEKNLNNFQTKDEKQFLMWHEAIAIFMVDKSIKTALDFLNNALKLTLTNSDFLSEREIDIMQTMAIFYAENKEYEKSINIFKRCLTNFNKLDFPRDKEIKLKLMLNLAKCFDFTYQHEEAIKYIDKGIKLAINLNTLYLLGELFYLKGQCLLKMKQHNVEDVIYNWKKALFIFELTEKEYYTKMLPDELIELQNKKHS” as the sequence, how does the protein production read?
**A.** failed

**Q.** Which protein production does the source give for “MEGEAQKKFTTGDKAYVKKDSMMYEIVVGCNRSCPCRDSQCIAQIQQVAEPTVANGTARYFVHYVSWNESFDEWVEELDLYPFNAESQQLMNDLRQQALTEKDTENSVPEQENQLKRKRPSKETEKREEPLDAYSLFNIPGSLKRQLMDEWETVTREKMTLTLPREYTVRRILEIWATTKSKQSDSNKDDSTVQEFVNGIFELFNISLGKMLLYRYERPQHNQIFHENESPPEPIDVYGAEHLLRLFVKLPGLVRHLQVPEEAVLNIAQKSYEMLRFLQKNSRKFFSPQYEPLKSQDDSVQGENEDDMDEE” here?
**A.** not failed

**Q.** For “MEGFLMKKTWIALSLLIAFSASSLLPMQAKEATLPKDERYHLVNTSEKGEYELLNTYDSYTEAEKNFQRLSKKYNNLGITYGDSFLQVEQGVVAFPTNSDCSLNTDYILDETNTNGYLNGCYGGDAAFLEYDSYTNQIKFKISGVVAWSDATALTVYPIEKLPNVSSFIVKDGILYHQLKSSATSPSFSSVLPLSKAPSYLKESTTYYSYDTHYFYEAYDQLIKDERLATHQHAINAKKPYYNYYQYLDHRSTTDYTPKQIQSYFKQNLGFQANITNFYDTDNYVHDILTQSLLYGNSEAFFQYQNQFGANALMMLSLSLNESALGKSYIAYNKNNLFGHAAFDSSAEESASRYQSVAASVYSHALHYLSESYLNPEAFQYYGGYFGNKAGGMNVAYASDPYWGEKSASYFMRMDRDMGYQDENNYQLGIAQGQAVKVYASASKKAKLLYTTEEGYDASFILQKKIKNKSGTWYQVQSDIALTKSKESIQDGSYPFATSIGYVKADDIDVITGAEKAANKSYLPITFDAVDGSFYPNTSSITLFVEKGQMPVILDPIKENALFDGWDITLEPATNALTYKATYKHIKNIEVIEKPQTKYNLGDTLNLKHGKIRVTFEDGSSKEVALNNDMVSGFHNDQSGKQRLTITYGGSTTYYDIEMDNQQEERINDVKKQAAHVIKTYMGKVGLNSEALDELIRLRNQLGQFDMQVLPRDQIRVIDRILQENLEPRYSVIIKDDTYDMQVSGLSIALQGESSFLNNIMPKTLRLDVNNDIPKEEKQFVEKVAKANGMNVASYLAIEGTDDFSTLKLQSQLVYSIQKPKKDIDHRIYSVYYISGKDIYQLPTTQSKNRIVFPNDKLGHYAVVWKHADSITHSKDFQEVNTIKQNGKDYIKVYILLPCIIILLTLALLALILYMRKRKIKPFKA”, which protein production is on record?
**A.** failed

**Q.** For “MEGFPVRVRVDVRFRDLDPLGHVNNAVFLSYMELARIRYFQRISPDWLEEGHFVVARMEVDYLRPILLGDEVFVGVRTVGLGRSSLRMEHLVTANGESAAKGLGVLVWLEGGRPAPLPEAIRERIRALEGRPL”, which protein production is on record?
**A.** not failed

**Q.** Which protein production does the source give for “MEGIQHPIPRTVEEVFSDFRGRRAGLIKALSTDVQKFYHQCDPEKENLCLYGLPNETWEVNLPVEEVPPELPEPALGINFARDGMQEKDWISLVAVHSDSWLISVAFYFGARFGFGKNERKRLFQMINDLPTIFEVVTGNAKQSKDQSANHNSSRSKSSGGKPRHSESHTKASKMSPPPRKEDESGDEDEDDEQGAVCGACGDNYGGDEFWICCDACEKWFHGKCVKITPAKAEHIKHYKCPSCTTSKKMKA” here?
**A.** failed

Reference: a protein production outcome set (Wang et al. 2014)
